Laboratory results: paper PMC8602277, “Crystal structures of the elusive Rhizobium etliL-asparaginase reveal a peculiar active site” (Nature Communications, 2021)

What was measured:
[1] = substrate: NC(=O)C[C@H](N)C(=O)O; assay: ITC, multiple injection mode, Michaelis-Menten fit; format: biochemical, Rhizobium etli; details: 30 mM phosphate pH 9.0, 37 °C, Zn-containing native enzyme, Hill coefficient 1.6 by separate Hill fit
[2] = molecular target: the molecule itself; assay: SEC; analytical Superdex75 10/300 GL column, 50 mM phosphate buffer pH 7.5 with 20 mM NaCl, room temperature
[3] = molecular target: the molecule itself; assay: crystal structure; WT ReAV in four crystal forms (OP, MP1, MP2, MC) plus the S-SAD START data set; one or two dimers in the asymmetric unit; crystals grown at 19 °C by hanging drop vapor diffusion

B1: ReAV (inducible R. etli L-asparaginase, AnsA) (Rhizobium etli CFN 42) (protein)
chain: MTPSEDFVVTDRGGIVENSHRVHAAVVDAKGRLLYALGNPTRMTLARSAAKPAQALAILETEGVAGYGFDDADIALMCASHSSEDRHIARTRAMLSKIKAEEADLRCGGHPSLSEMVNRSWIKQDFIPTAVCSNCSGKHVGMLAGARAIGAGTDGYHLPDHPMQGRVKRTVAELCDLDAGDVEWGTDGCNLPTPAFPLDRLGRIYAKLASAADGSDAGEGQSTRCAALAHIFRAMARHPEMVAGEGRYCTMLMRAFDGALVGKLGADASYAIGVRASDATRQLGTDGALGISVKIEDGNLEMLYAVVTELLERLGIGSPDVRSQLASFHHPQRVNTMGVTTGGVSFPFKLRGSKSNVDDPRLAAVAR
notes: full-length wild type, 367 residues, expressed in E. coli BL21 STAR (DE3) from pET151-D-TOPO, N-terminal His6-tag cut with TEV protease; homodimer, one Zn2+ per subunit
Km [1]: 4.2 ± 0.3 mM | kcat [1]: 438 ± 32 s⁻¹

B2: ReAV C135A mutant (enzyme, Rhizobium etli (strain CFN 42))
chain: MTPSEDFVVTDRGGIVENSHRVHAAVVDAKGRLLYALGNPTRMTLARSAAKPAQALAILETEGVAGYGFDDADIALMCASHSSEDRHIARTRAMLSKIKAEEADLRCGGHPSLSEMVNRSWIKQDFIPTAVCSNASGKHVGMLAGARAIGAGTDGYHLPDHPMQGRVKRTVAELCDLDAGDVEWGTDGCNLPTPAFPLDRLGRIYAKLASAADGSDAGEGQSTRCAALAHIFRAMARHPEMVAGEGRYCTMLMRAFDGALVGKLGADASYAIGVRASDATRQLGTDGALGISVKIEDGNLEMLYAVVTELLERLGIGSPDVRSQLASFHHPQRVNTMGVTTGGVSFPFKLRGSKSNVDDPRLAAVAR
notes: inducible L-asparaginase ReAV (AnsA) of Rhizobium etli strain CFN 42; printed length 367 residues; source: E. coli BL21 STAR (DE3), purified as the WT protein; not shown: His6, N-terminal, cleaved
stoichiometry N [2]: 2

B3: ReAV S48A mutant (enzyme, Rhizobium etli (strain CFN 42))
chain: MTPSEDFVVTDRGGIVENSHRVHAAVVDAKGRLLYALGNPTRMTLARAAAKPAQALAILETEGVAGYGFDDADIALMCASHSSEDRHIARTRAMLSKIKAEEADLRCGGHPSLSEMVNRSWIKQDFIPTAVCSNCSGKHVGMLAGARAIGAGTDGYHLPDHPMQGRVKRTVAELCDLDAGDVEWGTDGCNLPTPAFPLDRLGRIYAKLASAADGSDAGEGQSTRCAALAHIFRAMARHPEMVAGEGRYCTMLMRAFDGALVGKLGADASYAIGVRASDATRQLGTDGALGISVKIEDGNLEMLYAVVTELLERLGIGSPDVRSQLASFHHPQRVNTMGVTTGGVSFPFKLRGSKSNVDDPRLAAVAR
notes: inducible L-asparaginase ReAV (AnsA) of Rhizobium etli strain CFN 42; printed length 367 residues; CD spectra indicate incorrect folding or strong structural distortion; source: E. coli BL21 STAR (DE3), mostly in inclusion bodies, soluble part purified as the WT protein; not shown: His6, N-terminal, cleaved
stoichiometry N [2]: 2

B4: ReAV K263A mutant (enzyme, Rhizobium etli (strain CFN 42))
chain: MTPSEDFVVTDRGGIVENSHRVHAAVVDAKGRLLYALGNPTRMTLARSAAKPAQALAILETEGVAGYGFDDADIALMCASHSSEDRHIARTRAMLSKIKAEEADLRCGGHPSLSEMVNRSWIKQDFIPTAVCSNCSGKHVGMLAGARAIGAGTDGYHLPDHPMQGRVKRTVAELCDLDAGDVEWGTDGCNLPTPAFPLDRLGRIYAKLASAADGSDAGEGQSTRCAALAHIFRAMARHPEMVAGEGRYCTMLMRAFDGALVGALGADASYAIGVRASDATRQLGTDGALGISVKIEDGNLEMLYAVVTELLERLGIGSPDVRSQLASFHHPQRVNTMGVTTGGVSFPFKLRGSKSNVDDPRLAAVAR
notes: as for B2
stoichiometry N [2]: 2

B5: ReAV K51A mutant (enzyme, Rhizobium etli (strain CFN 42))
chain: MTPSEDFVVTDRGGIVENSHRVHAAVVDAKGRLLYALGNPTRMTLARSAAAPAQALAILETEGVAGYGFDDADIALMCASHSSEDRHIARTRAMLSKIKAEEADLRCGGHPSLSEMVNRSWIKQDFIPTAVCSNCSGKHVGMLAGARAIGAGTDGYHLPDHPMQGRVKRTVAELCDLDAGDVEWGTDGCNLPTPAFPLDRLGRIYAKLASAADGSDAGEGQSTRCAALAHIFRAMARHPEMVAGEGRYCTMLMRAFDGALVGKLGADASYAIGVRASDATRQLGTDGALGISVKIEDGNLEMLYAVVTELLERLGIGSPDVRSQLASFHHPQRVNTMGVTTGGVSFPFKLRGSKSNVDDPRLAAVAR
notes: as for B2
stoichiometry N [2]: 2

B6: inducible Rhizobium etli L-asparaginase ReAV, wild type (enzyme, Rhizobium etli (strain CFN 42))
chain: MTPSEDFVVTDRGGIVENSHRVHAAVVDAKGRLLYALGNPTRMTLARSAAKPAQALAILETEGVAGYGFDDADIALMCASHSSEDRHIARTRAMLSKIKAEEADLRCGGHPSLSEMVNRSWIKQDFIPTAVCSNCSGKHVGMLAGARAIGAGTDGYHLPDHPMQGRVKRTVAELCDLDAGDVEWGTDGCNLPTPAFPLDRLGRIYAKLASAADGSDAGEGQSTRCAALAHIFRAMARHPEMVAGEGRYCTMLMRAFDGALVGKLGADASYAIGVRASDATRQLGTDGALGISVKIEDGNLEMLYAVVTELLERLGIGSPDVRSQLASFHHPQRVNTMGVTTGGVSFPFKLRGSKSNVDDPRLAAVAR
modifications: Cys249 most likely oxidized, modeled as S-hydroxycysteine in the crystal structures
notes: inducible L-asparaginase ReAV (AnsA) of Rhizobium etli strain CFN 42, encoded on plasmid p42e; printed length 367 residues; also called WT ReAV; AnsA; source: E. coli BL21 STAR (DE3), purified (HisTrap Ni, TEV cleavage, second HisTrap Ni, Superdex 200); not shown: His6, N-terminal, cleaved
stoichiometry N [3]: 2

B7: ReAV S80A mutant (enzyme, Rhizobium etli (strain CFN 42))
chain: MTPSEDFVVTDRGGIVENSHRVHAAVVDAKGRLLYALGNPTRMTLARSAAKPAQALAILETEGVAGYGFDDADIALMCAAHSSEDRHIARTRAMLSKIKAEEADLRCGGHPSLSEMVNRSWIKQDFIPTAVCSNCSGKHVGMLAGARAIGAGTDGYHLPDHPMQGRVKRTVAELCDLDAGDVEWGTDGCNLPTPAFPLDRLGRIYAKLASAADGSDAGEGQSTRCAALAHIFRAMARHPEMVAGEGRYCTMLMRAFDGALVGKLGADASYAIGVRASDATRQLGTDGALGISVKIEDGNLEMLYAVVTELLERLGIGSPDVRSQLASFHHPQRVNTMGVTTGGVSFPFKLRGSKSNVDDPRLAAVAR
notes: as for B3
stoichiometry N [2]: 2
